Results as given in the RNAGym collection of RNA variant scans (doi:10.7554/elife.90254).

B1: LINE1-full (parent)
chain: UACGUAGGUGGUUUUCCCCUGAUAGUGCUAAGGGGGCCUGGAAGUUUGGACUGGGCAGAGCUCAACACAGCGUGGCAAAGUGGCUGUGGCUAGACUGCCUCUCUGGAUUCCUCGUCACUCAGCAGGGCAUCUCUGAGAGAAAUGCC

Variants of: B1
Assay: self-cleavage, relative activity (ratio to wild type); higher = more cleavage; in vitro, sequencing; the parent is a self-cleaving ribozyme
UACGUAGGUGGUUUUCCCCUGAUAGUGCUAAGGGGGCCUGGAAGUUUGGACUGGGCAGAGCUCAACACAGCGUGGCAAAGUGGCUGUGGCUAGACUGUCUCUCUGGAUUCCUCGUCACUCAGCAGGGCAUCUCUGAGAGAAUUGCC [C98U A142U] showed a self-cleavage of 0.47.
Work on UACGUAGGUGGUUUUCCCCUGAUAGUGCUAAGGGGGCCUGGAAGUUUGGACUGGGCAGAGCUCAACACAGCGUGGCAAAGAGGCUGUGGCCAGACUGCCUCUCUGGAUUCCUCGUCACUCAGCAGGGCAUCUCUGAGAGAAAUGCC [U81A U91C] yielded a self-cleavage of 0.77.
For UACGUAGGUGGUCUUCCCCUGAUAGUGCUAAGGGGGCCUGGAAGUUUGGACUGGGCAGAGCUCAACACAGCGUGGCAAAGUGGCUGUGGCUAGACUGCUUCUCUGGAUUCCUCGUCACUCAGCAGGGCAUCUCUGAGAGAAAUGCC [U13C C99U], the self-cleavage was 0.48.
UGCGUAGGUGGUUUUCCCCUGAUAGUGCUAAGGGGGCCUGGAAGUUUGGACUGGGCAGAGCUCAACACAGCGUGGCAAAGUGGCUGUGGCUAGACUGCCUCUCUGGAUUCCUCGUCACUCAGCAGGGCAUCUCUGAGAGAAACGCC [A2G U143C] showed a self-cleavage of 1.2.
Work on UACGUAGGUGGUUUUCCCCUGAUAGUGCUAAGGGGGCCUGGAAGUUUGGACUGGGCAGAGCUCAACACAGCGUGGCAAAGUGGCUGUGGCUAGACUGCCUCUCUGGAUUCCUCGUCACUCAGCAGGGCUUUUCUGAGAGAAAUGCC [A129U C131U] yielded a self-cleavage of 1.78.
Work on UACGUAGGUGGUUUUCCCCUGAUUGUGCUAAGGGGGCCUGGAAGUUUGGACUGGGCAGAGCUCAACACAGCGUGGCAAAGUGGCUGUGGCUAGACUGCCUCUCUGGAUUCCCCGUCACUCAGCAGGGCAUCUCUGAGAGAAAUGCC [A24U U112C] yielded a self-cleavage of 1.28.
UACGUAGGUGGUUUUCCCCUGAUAGUGCUAAGGGGGCCUGGAAGUUUGGACUGGGCAGAGCUCAACACAGCGUGGCAAAGUGGCUGUGGCUAGACUGCCUCUCUGGAUUCCUUGUCACUCAGCAGGGCAUCUCUGAGAGAGAUGCC [C113U A141G] showed a self-cleavage of 0.94.
For UACGUAGGUGGUUUUCCCCUGAUAGUGCUAAGGGGGCCUGGAAGUUUGGACUGGGCAGAGCUCAACACAGCGUGGCAAAGUGGCUGUAGCUAGACUACCUCUCUGGAUUCCUCGUCACUCAGCAGGGCAUCUCUGAGAGAAAUGCC [G88A G97A], the self-cleavage was 0.04.
For UACGUAGGUGGUUUUCCCCUGAAAGUGCUAAGGGGGCCUGGAAGUUUGGACUGGGCAGAGCUCCACACAGCGUGGCAAAGUGGCUGUGGCUAGACUGCCUCUCUGGAUUCCUCGUCACUCAGCAGGGCAUCUCUGAGAGAAAUGCC [U23A A64C], the self-cleavage was 0.48.
UACGUAGGUGGUUUUCCCCCGAUAGUGCUAAGGGGGCCUGGAAGUUUGGACUGGGCAGAGCUCAACACAGCGUGGCAAAGUGGCUGUGGCUAGACUGCCUCUCUGGAUUCCUCGUAACUCAGCAGGGCAUCUCUGAGAGAAAUGCC [U20C C116A] gave a self-cleavage of 1.5.
UACGUAGGUGGUUUUCCCCUGAUAGUGCUGAGGGGGCCUGGAAGUUUGGACUGGGCAGAGCUCAACACAGCGUGGCAAAGUGGCUGUGGCUAGACUGCCUCUCUGGUUUCCUCGUCACUCAGCAGGGCAUCUCUGAGAGAAAUGCC [A30G A107U] showed a self-cleavage of 1.71.
For UACGUAGGUGGUUUUCCCCUGAUAGUGCUAAGGGGGCCUGGAAGUUUGGACUGGGCAGAGCUCAACACAGCGUGGCAAAGUGGCUGUGGCUAGACUGCCUCUCUGGUUUCCUCGCCACUCAGCAGGGCAUCUCUGAGAGAAAUGCC [A107U U115C], the self-cleavage was 1.55.
Work on UACGUAGGUGGUUUCCCCCUGAUAGUGCUAAGGGGGCCUGGAAGUUUGGACUGGGCAGAGCUCAACGCAGCGUGGCAAAGUGGCUGUGGCUAGACUGCCUCUCUGGAUUCCUCGUCACUCAGCAGGGCAUCUCUGAGAGAAAUGCC [U15C A67G] yielded a self-cleavage of 0.44.
In the case of UACGUAGGUGGUUUUCCCCUGAUAGUGCUAAGGGGGCCUGGAAGUUUGGACUGGGCGGAGCUCAACACAGCGUGGCAAAGAGGCUGUGGCUAGACUGCCUCUCUGGAUUCCUCGUCACUCAGCAGGGCAUCUCUGAGAGAAAUGCC [A57G U81A], the self-cleavage is reported as 1.16.
Work on UUCGUAGGUGGUUUUCCCCUGAUAGUGCUAAGGGGGCCUGGAAGUCUGGACUGGGCAGAGCUCAACACAGCGUGGCAAAGUGGCUGUGGCUAGACUGCCUCUCUGGAUUCCUCGUCACUCAGCAGGGCAUCUCUGAGAGAAAUGCC [A2U U46C] yielded a self-cleavage of 1.76.
With UACGUAGGUGGUUUUCCCCUGAUAGUGCUAAGGGGGCCUGGAAGUUUGGACUGGGCAGAGCUCAACACAGCGUGGCAAAGUGGCUGUGGCUAGACUGCCUCUCUGGACUCCUCGUCACUCAGCAGGACAUCUCUGAGAGAAAUGCC [U108C G127A] the self-cleavage was 1.64.
UACGUAGGUGGUUUUCCCCUGAUCGUGCUAAGGGGGCCUGGAAGUUUGGACUGGGCAGAGCUCAACACAGCGUGGCAAAGUGGCUGUGGCUAGACUGCAUCUCUGGAUUCCUCGUCACUCAGCAGGGCAUCUCUGAGAGAAAUGCC [A24C C99A] showed a self-cleavage of 0.47.
With UACGUAGGUGGUUUUCCCCUGAUAGUGCUAAGGUGGCCUGGAAGUAUGGACUGGGCAGAGCUCAACACAGCGUGGCAAAGUGGCUGUGGCUAGACUGCCUCUCUGGAUUCCUCGUCACUCAGCAGGGCAUCUCUGAGAGAAAUGCC [G34U U46A] the self-cleavage was 1.32.
Work on UACGUAGGUGGUUUUCCCCUGAUAGUGCUAAGGGGGCCUGGAAGUUUGGACUGGGCAGAGCUCAACACAGCGUGGCAAAGUGGCUGUGGCUAGACUGCCACCCUGGAUUCCUCGUCACUCAGCAGGGCAUCUCUGAGAGAAAUGCC [U100A U102C] yielded a self-cleavage of 1.7.
Work on UACGUAGGUGGUUUACCCCUGAUAGUGCUAAGGGGGCCUGGAAGUUUGGACUGGGCAGAGCUCAACACAGCGUGGCAAAGUGGCUGUGGCUAGACUGCCUCUCUGGAUUCCUCGUCACUCAGCAGGGCAUCUCUGAGAGAAAAGCC [U15A U143A] yielded a self-cleavage of 1.09.
Work on UACGUAGGUGGUUUUCCCCUGAUAGUGCUAAGGGGGCCUGGAAGUUUGGACUGGGCAGAGCUCAUCACAGCGUGGCAAAGUGGCUGUGGCUAGACUGCCUCUCUGGAUUCCUCGCCACUCAGCAGGGCAUCUCUGAGAGAAAUGCC [A65U U115C] yielded a self-cleavage of 0.26.
For UACGUAGGUGGUUUUCCCCUGAUAGUGCUAAGGGGGCCUGGCAGUUUGGACUGAGCAGAGCUCAACACAGCGUGGCAAAGUGGCUGUGGCUAGACUGCCUCUCUGGAUUCCUCGUCACUCAGCAGGGCAUCUCUGAGAGAAAUGCC [A42C G54A], the self-cleavage was 0.13.
UACGUAGGUGGUUUUCCCCUGAUAGCGCUAAGGGGGCCUGGAAGUUUGGACUGGGCAGAGCUCAACACAGCGUGGCAAAGUGGCUGUGGCUAGACUGCCUCUCUGGAUUCCUCGUCACUCAGCAGGGCAUCUCUAAGAGAAAUGCC [U26C G135A] showed a self-cleavage of 1.65.
Work on UACGUAGGUGGUUUUCCCCUGAUAGUGCUAAGGGGGCCUGGAAGUUUGGACUGGGCAGAGCUCAACACAGCGUAGCAAAGUGGCUGUGGCUAGACUGCCUCUCUGGAUUCCUCGUCACUCAGCAGGGCAUCUCUGAGAGAAAGGCC [G74A U143G] yielded a self-cleavage of 2.27.
Work on UACGUAGGUGGUCUUCCCCUGAUAGUGCUAAGGGGGCCUGGAAGUUUGGACUGGGCAGAGCUCAACACAGCGUGGCAAAGUGGCUGUGGCUAGACUGCCUCUCUGAAUUCCUCGUCACUCAGCAGGGCAUCUCUGAGAGAAAUGCC [U13C G106A] yielded a self-cleavage of 1.51.
With UACGUAGGUGGUUUUCCCCUGAUAGUGCUAAGGGGGCCUGGAAGUUUGGACUGGGCAAAGCUCAACACAGCGUGGCAAAGUGGCUGUGGCUAGACUGCCUCUCUGGAUUCCUCGUCACUCAGCAGGGCAUCUCUGAGAGAAAUACC [G58A G144A] the self-cleavage was 0.04.
For UACGUAGGUGGUUUUCCCCUGAUAGUGCUAAGGGGGCCUGGAAGUUUGGACUGGGCAGAGCUCAACACAGCGUGGCAAAGUGGCUGUGGCUAGACUGCCUCUCUGGAUUCCUCGUCACUCAGCAGGGCAACUCUGAGAGGAAUGCC [U130A A140G], the self-cleavage was 1.27.
UACGUAGGUGGUUUUCCCCAGAUAGUGCCAAGGGGGCCUGGAAGUUUGGACUGGGCAGAGCUCAACACAGCGUGGCAAAGUGGCUGUGGCUAGACUGCCUCUCUGGAUUCCUCGUCACUCAGCAGGGCAUCUCUGAGAGAAAUGCC [U20A U29C] showed a self-cleavage of 1.09.
UACGUAGGUGGUUUUCCCCUGAUAGUGCUAAGGGGGCCUGGAAGUUUGGACUGGGCAGAGCACAACACAGCGUGGCAAAGUGGCUGUGGCUAGACUGCCUCCCUGGAUUCCUCGUCACUCAGCAGGGCAUCUCUGAGAGAAAUGCC [U62A U102C] showed a self-cleavage of 0.01.
UAUGUAGGUGGUUUUCCCCUGAUAGUGCUAAGGGGGCCUGGAAGUUUGGACUGGGCAGAGCUCAACACAGCGUGGCAAAGUGGCUGUGGCUAGACUGCCUCUCUGGAUUCCUCGUCACUCAGCAGGGCAUUUCUGAGAGAAAUGCC [C3U C131U] showed a self-cleavage of 1.02.
UACGUAGGUGGUUUUCCCCUGAUAGUGCUAAGGGGGCCUGGAAGUUUGGACUGGGCAGAGCUCAACACAGCGUGGCAAAGUGGCUGUGGCUAGACUGCCUCUCUGGAUUCCUCGUCACUCAGCAGGGCAUCUCUGGGAGAAGUGCC [A136G A142G] showed a self-cleavage of 1.47.
With UACGUAGGUGGUUGUCCCCUGAUAGUGCUAAGGGGGCCUGGAAGUUUGGACUGGGCAGAGCUCAACACAGCGUGGCAAGGUGGCUGUGGCUAGACUGCCUCUCUGGAUUCCUCGUCACUCAGCAGGGCAUCUCUGAGAGAAAUGCC [U14G A79G] the self-cleavage was 0.42.
UACGUAGGUGGUAUUCCCCUGAUAGUGCUAAGGGGGCCUGGAAGUUUGGACUGGGCAGAGCUCAACACAGCGUGGCAAAGUGGCUGUGGCUAGACUGCCUCUCUGGAUUCCUCGUCACUCAGCAGGGCAUCACUGAGAGAAAUGCC [U13A U132A] gave a self-cleavage of 0.87.
For UACGUAGCUGGUUUUCCCCUGAUAGUGCUAAGGGGGCCUGGAAGUUUGGACUGGGCAGAGCUCAACACAGCGUGGCAAAGUGGCUGUGGCUAGACUGCCUCUCUGGAUUCCUCGUCACUCAGCAGGGCAUCUCUGAGAGAAAAGCC [G8C U143A], the self-cleavage was 2.06.
UACGUAGGUGGUUUUCCCCUGAUAGUGCUAAGGGGGCCUGGAUGUUUGGACUGGGCAGAGCUCAACACAGCGUGGCAAAGUGGCUGUGGCUAGACUGCCUCUCUGGAUUCCUCGUUACUCAGCAGGGCAUCUCUGAGAGAAAUGCC [A43U C116U] showed a self-cleavage of 1.12.
Work on UACGUAGGUGGUUUUCCCCUGAUAGUGCUAAGUGGGCCUGGAAGUUUGGACUGGGCAGAGCUCAACACAGCGUAGCAAAGUGGCUGUGGCUAGACUGCCUCUCUGGAUUCCUCGUCACUCAGCAGGGCAUCUCUGAGAGAAAUGCC [G33U G74A] yielded a self-cleavage of 0.88.
Work on UACGUAGGUGGUUUUCCCCAGAUAGUGCUAAGGGGGCCUGGAAGUUUGGACUGGGCAGAGCUCAACACAGCGUGGCAAAGUGGCUGUGGCUAGACUGCCUCUCUGGAUUCCUCGUCACUCAGCAGGGCAUCUCCGAGAGAAAUGCC [U20A U134C] yielded a self-cleavage of 1.32.
Variant UACGUAGGUGGUUUUCCCCUGAUAGUGCUAAGGGGGCCUGGAAGUUUGGACUGGGCAGAGCUAAACACAGCGUGGCAAAGUGGCUGUGGCUAGACUGCCCCUCUGGAUUCCUCGUCACUCAGCAGGGCAUCUCUGAGAGAAAUGCC [C63A U100C] has a self-cleavage of 0.04.
Work on UACGUAGGUGGUUUUCCCCUGAUAGUGCUAAGGGGGCCUGGAAGUUUGGACUGGGCAGAGCUCAACACAGCGUGGCAAAGUGGCUGUGGCUUGACUGCCUCUCUGGAUUCCCCGUCACUCAGCAGGGCAUCUCUGAGAGAAAUGCC [A92U U112C] yielded a self-cleavage of 0.48.
